In general, Kd refers to a measure of binding affinity in units of concentration. Lower therefore signals tighter binding.

Results on two molecules are retold here after article PMC3327698, “Binding Properties and Stability of the Ras-Association Domain of Rap1-GTP Interacting Adapter Molecule (RIAM)” (PLoS ONE, 2012).

The labels stand for the following.
B1: GST-RIAM150-261 (RA domain) (domain or fragment, human, UniProt Q7Z5R6 150-261, looked up)
chain: SQEEEEAQAKADKIKLALEKLKEAKVKKLVVKVHMNDNSTKSLMVDERQLARDVLDNLFEKTHCDCNVDWCLYEIYPELQIERFFEDHENVVEVLSDWTRDTENKILFLEKE
notes: Modified pGEX-4T3 vector with a TEV protease site between GST and RIAM; also called RIAM RA domain construct; GST-RIAM-RA; source: E. coli BL21 GOLD, purified (Glutathione Sepharose, SEC); not shown: GST, N-terminal, kept
B2: Rap1B (amino acids 1-167) (domain or fragment, UniProt P61224 1-167, looked up)
chain: MREYKLVVLGSGGVGKSALTVQFVQGIFVEKYDPTIEDSYRKQVEVDAQQCMLEILDTAGTEQFTAMRDLYMKNGQGFALVYSITAQSTFNDLQDLREQILRVKDTDDVPMILVGNKCDLEDERVVGKEQGQNLARQWNNCAFLESSAKSKINVNEIFYDLVRQINR
notes: small GTPase Rap1B, amino acids 1-167 (C-terminus excluded); loaded with Gpp(NH)p or GDP before the assay; One molecule for both nucleotide states; Construct pGEX-4T3/Rap1B came from A. Wittinghofer; also called Rap1B-Gpp(NH)p; Rap1B-GTP; source: E. coli BL21 GOLD, purified (Glutathione Sepharose, nucleotide exchange, SEC)

In test [1] the target is B2. Put plainly: pull-down; quantitative: GST-RIAM on Glutathione Sepharose 4B; Rap1B-Gpp(NH)p at 0.05, 0.1, 0.3, 0.5, 0.7 and 1.0 µM; Buffer A; anti-Rap1 Western blot, densitometry, nonlinear regression (GraphPad Prism). The settings on record: both partners purified.
The target in test [2] is T1, GST-RIAM150-502 (RA and PH domains) (human, UniProt Q7Z5R6 150-502).
T1 construct: Modified pGEX-4T3 vector with a TEV protease site; also called RA-PH domain pair; source: E. coli BL21 GOLD, purified (Glutathione Sepharose, SEC); not shown: GST, N-terminal, kept
T1 sequence (looked up): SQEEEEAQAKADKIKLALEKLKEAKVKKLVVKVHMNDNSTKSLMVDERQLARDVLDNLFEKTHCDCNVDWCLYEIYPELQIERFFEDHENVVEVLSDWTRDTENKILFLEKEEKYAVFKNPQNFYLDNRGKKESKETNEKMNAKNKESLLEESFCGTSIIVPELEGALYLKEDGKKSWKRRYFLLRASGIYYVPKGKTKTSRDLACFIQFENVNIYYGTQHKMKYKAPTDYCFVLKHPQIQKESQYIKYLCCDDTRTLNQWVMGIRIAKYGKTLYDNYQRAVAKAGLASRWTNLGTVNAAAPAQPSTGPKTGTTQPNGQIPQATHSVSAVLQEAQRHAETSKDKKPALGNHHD
The test is described as above. The settings on record: both partners purified.

Take B1: the affinity in test [1], expressed as Kd, was 330 ± 90 nM. For the molecule B2, binding in test [2] was characterised by a dissociation constant (Kd) of 700 ± 400 nM.
